Test results taken from patent publication US20190218261A1, “TARGETED ENHANCED DNA DEMETHYLATION” (The Jackson Laboratory, priority 2016, published 2019).
Numbering of substitutions follows the chain as printed. Names may count otherwise.

Columns and labels:
[1] = tested on: CpGs of the hMLH1 promoter region; test: Bisulfite conversion and sequencing of hMLH1 promoter; format: cell-based, human; settings: HEK293T; Casilio-ME days 3-6 post transfection; AzaC treatment for 6 days
Text: Casilio-mediated delivery of demethylation enzymes alters methylation state of targeted genomic locus. Evidence that the shown Casilio-ME-induced activation of hMLH1 transcription is a result of TET1-mediated cytosine demethylation within the targeted promoter region came from DNA sequencing of hMLH1 promoter after bisulfite conversion. Bisulfite treatment of genomic DNA deaminates unmethylated cytosines to produce uracils that are subsequently replicated as thymine. However, methylated cytosines are protected from conversion to uracils, thus allowing one to determine cytosine methylation states at single-nucleotide resolution by direct sequencing.
To assess changes in methylation states of CpG island within hMLH1 promoter region after Casilio-ME-mediated transcription activation, time course experiment were carried out where cells were collected 3, 4, 5, and 6 days post transfection, for analysis of cytosine methylation as well as transcription activation, and protein expression. HEK293T were transfected with Casilio-ME components that includes Ct-fusion PUFa-TET1 effector and a combination of 2 sgRNAs (RNA guides 3 and 7).
Bisulfite conversion and sequencing. Genomic DNAs were extracted using all AllPrep DNA/RNA/Protein Mini Kit according the manufacturer's instructions (Qiagen). […]

[2] = tested on: 5′-UGUGUGUG-3′ RNA (SEQ ID NO:13); settings: cited from earlier work
[3] = tested on: TetO::tdTomato transgene in HEK293T/TetO::tdTomato cell line; test: TetO::tdTomato transgene activation measured by FACS; format: cell-based; settings: for transgene activation with higher PBS copy numbers: 15, 20, and 47 copies of PBS
Text: In particular, to test whether appending PBS to the 3′ end of sgRNA affects sgRNA function, a series of modified Tet-targeting (sgTetO) or non-targeting control (sgControl) sgRNA were generated, […] domain-binding sequence (PBS) for PUF (3-2) (also simply referred to as PUFa) [PBS32 or PBSa: SEQ ID NO:8 (5′-UGUAUgUA-3′)], PUF(6-2/7-2) (also simply referred to as PUFb) [PBS6272 or PBSb: SEQ ID NO:9 (5′-UugAUAUA-3′)].
Cells were transfected with dCas9-VP64 with the different sgRNA scaffolds, and were analyzed by fluorescent-activated cell sorting (FACS) two days after transfection (FIG. 1B).
Cell Culture for Experiments. HEK293T cells were cultivated in Dulbecco's modified Eagle's medium (DMEM)(Sigma) with 10% fetal bovine serum (FBS)(Lonza), 4% Glutamax (Gibco), 1% Sodium Pyruvate (Gibco) and penicillin-streptomycin (Gibco). Incubator conditions were 37° C. and 5% CO2. For activation experiments, cells were seeded into 12-well plates at 100,000 cells per well the day before being transfected with 200 ng of dCas9 construct, 100 ng of modified sgRNA and 100 ng of PUF-fusion with Attractene transfection reagent (Qiagen). After transfection, cells were grown for 48 hrs and harvested for either RNA extraction or fluorescent-activated cell sorting (FACS). For dual activation-repression experiments, transfection remained the same, however cells were seeded into 12-well plates at 150,000 cells per well and were grown for 72 hrs before being harvested for FACS. For experiments with OCT4 and SOX2 dual activation-repression, cells were triple-sorted by BFP (for the activator-repressor module PUFb-p65HSF1/BFPKRAB-PUFa), mCherry (for dCas9mCherry) and GFP (for the sgRNA-PBS on vectors co-expressing EGFP) before RNA extraction. […]
Fluorescent-Activated Cell Sorting. […] Samples were analyzed on a FACScalibur flow cytometer using CellQuest Pro software (BD Bioscience). […] were collected in each run.

[4] = tested on: SOX2 gene expression (SOX2 promoter) in HEK293T cells; test: SOX2 expression by quantitative reverse-transcription PCR after Dnmt effector targeting; format: cell-based; settings: guides targeting SOX2 promoter, compared to direct dCas9 fusions
Protocol: Establishment of a dCas9-expressing cell line. The day prior to transfection, Lenti-X 293T cells were seeded into 6-well plates at 1.2 million cells per well. The cells were transfected with the supercoiled packaging plasmids (pLP1 (gag/pol), pLP2 (rev), and VSV-G (envelope)) and a dCas9 lentiviral expression plasmid through Lipofectamine 3000 reagent (Invitrogen). At 6 h posttransfection, medium was exchanged for fresh. At 24 h posttransfection, 2 ml of medium containing the lentivirus were collected and centrifuged for 10 minutes at 2,000 rpm to remove cellular debris. The supernatant was filtered utilizing a […] pore filter (Millipore), and the lentivirus was frozen at −80° C. until needed. HEK293T cells, seeded into a 12-well plate at 150,000 cells per well, were transduced with 500 μl of the dCas9 lentivirus in culture medium supplemented with 5 μg/ml polybrene for 12 hours, and subsequently selected with Blasticidin antibiotics on the third day post transduction.
Transfection. HEK293T, and HEK293T/dCas9 cell lines were seeded into 12-well plates at 150,000 cells per well. […] At 3 day post-transfection, the cells were sorted for GFP (sgRNA expression constructs are marked by GFP) with fluorescence-activated cell sorting (FACS) and re-plated into 12 or 24-well plates.
Quantitative reverse-transcription PCR. […]

Nc1ncn([C@@H]2O[C@H](CO)[C@@H](O)[C@H]2O)c(=O)n1 [5′azacytidine, 5-Azacytidine]
frequency of bisulfite conversion (cytosine demethylation) at CpGs of hMLH1 promoter [1]: increased bisulfite conversion frequency on multiple CpG sites within the promoter region

B1: PUF^531: PUF domain with mutations Q867E/Q939E/C935S/Q1011E/C1007S; SEQ ID NO:22 (protein)
chain: GRSRLLEDFRNNRYPNLQLREIAGHIMEFSQDQHGSRFIELKLERATPAERQLVFNEILQAAYQLMVDVFGNYVIQKFFEFGSLEQKLALAERIRGHVLSLALQMYGSRVIEKALEFIPSDQQNEMVRELDGHVLKCVKDQNGNHVVQKCIECVQPQSLQFIIDAFKGQVFALSTHPYGSRVIERILEHCLPDQTLPILEELHQHTEQLVQDQYGNYVIQHVLEHGRPEDKSKIVAEIRGNVLVLSQHKFASNVVEKCVTHASRTERAVLIDEVCTMNDGPHSALYTMMKDQYANYVVQKMIDVAEPGQRKIVMHKIRPHIATLRKYTYGKHILAKLEKYYMKNGVDLG
affinity for new target RNA sequence compared to wild type PUF RNA [2]: very high affinity

B2: PUFa-VP64: NLS-PUFa-VP64 fusion; SEQ ID NO:32 (protein)
chain: MGILPPKKKRKVSRGRSRLLEDFRNNRYPNLQLREIAGHIMEFSQDQHGSRFIQLKLERATPAERQLVFNEILQAAYQLMVDVFGNYVIQKFFEFGSLEQKLALAERIRGHVLSLALQMYGSRVIEKALEFIPSDQQNEMVRELDGHVLKCVKDQNGNHVVQKCIECVQPQSLQFIIDAFKGQVFALSTHPYGCRVIQRILEHCLPDQTLPILEELHQHTEQLVQDQYGNYVIQHVLEHGRPEDKSKIVAEIRGNVLVLSQHKFASNVVEKCVTHASRTERAVLIDEVCTMNDGPHSALYTMMKDQYANYVVQKMIDVAEPGQRKIVMHKIRPHIATLRKYTYGKHILAKLEKYYMKNGVDLGGPAGSGRADALDDFDLDMLGSDALDDFDLDMLGSDALDDFDLDMLGSDALDDFDLDMLYID
transgene activation with higher PBS copy numbers [3]: slightly lower, albeit still substantial transgene activation
activation of TetO::tdTomato with only one PBSa ([3]; sgRNA with one PBSa): not observed

B3: PUFb-VP64: NLS-PUFb-VP64 fusion; SEQ ID NO:33 (protein)
chain: B2 chain with S122C, E126Q, N230S, Q234E, S266N, E270Q
transgene activation with higher PBS copy numbers [3]: slightly lower, albeit still substantial transgene activation

B4: Dnmt3a-PUF: Dnmt3a catalytic region fused to N-terminus of PUFa; SEQ ID NO:65 (protein)
chain: MGPANHDQEFDPPKVYPPVPAEKRKPIRVLSLFDGIATGLLVLKDLGIQVDRYIASEVCEDSITVGMVRHQGKIMYVGDVRSVTQKHIQEWGPFDLVIGGSPCNDLSIVNPARKGLYEGTGRLFFEFYRLLHDARPKEGDDRPFFWLFENVVAMGVSDKRDISRFLESNPVMIDAKEVSAAHRARYFWGNLPGMNRPLASTVNDKLELQECLEHGRIAKFSKVRTITTRSNSIKQGKDQHFPVFMNEKEDILWCTEMERVFGFPVHYTDVSNMSRLARQRLLGRSWSVPVIRHLFAPLKEYFACVIDGGGGSDPKKKRKVDPKKKRKVDPKKKRKVGSTGSRNDGGGGSGGGGSGGGGSGRAGILPPKKKRKVSRGRSRLLEDFRNNRYPNLQLREIAGHIMEFSQDQHGSRFIQLKLERATPAERQLVFNEILQAAYQLMVDVFGNYVIQKFFEFGSLEQKLALAERIRGHVLSLALQMYGSRVIEKALEFIPSDQQNEMVRELDGHVLKCVKDQNGNHVVQKCIECVQPQSLQFIIDAFKGQVFALSTHPYGCRVIQRILEHCLPDQTLPILEELHQHTEQLVQDQYGNYVIQHVLEHGRPEDKSKIVAEIRGNVLVLSQHKFASNVVEKCVTHASRTERAVLIDEVCTMNDGPHSALYTMMKDQYANYVVQKMIDVAEPGQRKIVMHKIRPHIATLRKYTYGKHILAKLEKYYMKNGVDLGDPKKKRKVDPKKKRKVGGRGGGGSGGGGSGGGGSGPA
repression of SOX2 gene expression [4]: more robust repression of SOX2 gene expression compared to direct fusions
